# Assay results reported in the supplement of paper PMC12042874.
# ± gives the uncertainty stated by the source.
# Assay: amyloid nucleation score (Sup35N fusion, yeast selection) (log enrichment); library NNK3; higher = more nucleation; inactive = no reads after selection
# Outline: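 Libraries of peptides of 20 random codons fused to Sup35N were expressed in psi-negative yeast and induced 24 hours with 100 μM copper sulfate. Selection was 7 days at 30°C on medium lacking adenine and uracil, and plasmid inserts were Illumina-sequenced before and after selection. Nucleation score is the DiMSum log enrichment of output over input reads, centred on the mode score of non-aggregating sequences, and sequences with under 100 input reads were left out.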
row,Substance,amyloid nucleation score
1,ICTKSALYQTMLS,inactive
2,MPWGTWGAS,inactive
3,SMQVQMTWLCDRSSLGQRNL,1.61 ± 0.074
4,SFPLPS,inactive
5,LRATHVSVKGSGRYSVSTFS,inactive
6,TLGVGP,inactive
7,GAGYL,inactive
8,LSVMNSVRTWYIIDFATFSC,inactive
9,KASHWV,inactive
10,LTLNSKVTDM,inactive
11,YRDRFAKSSYKSPKMYQYGS,inactive
12,SLCLVSLLCFSFRCNDGKWR,1.38 ± 0.084
13,ELLWNLRGNFDIDLGSFIRT,inactive
14,ANYVCKNAVYVMQNNGLVH,inactive
15,TMHKGLVVMF,inactive
16,KLFWMIVCGVLNLNSNNYGG,2.57 ± 0.084
17,RNFRRVSSRF,inactive
18,VSLLMRASGSCLNMQVYSGF,1.57 ± 0.11
19,YAPFWS,inactive
20,LILAMSRLALWSL,inactive
21,DMNSACCVWHSVFYSEFYVI,2.19 ± 0.069
22,SEHDDGMVSPKTHTVGSYTC,inactive
23,QLHVMNVYFFWKDSSALMRA,inactive

row,Substance,amyloid nucleation score
1,IFHRD,inactive
2,NRVMSVLF,inactive
3,YVVAGS,inactive
4,PFTTSYPDVQLTMKFNSWRN,1.56 ± 0.13
5,RCRDGTILALC,inactive
6,EVVPCCF,inactive
7,AFKNYVPMFTW,-0.335 ± 0.73
8,IYNTGHSSRYLRTPVFAWSE,inactive
9,PFCVCRLL,inactive
10,IAEDIRARPSVWDLMRSSAI,inactive
11,VYAEKMMVSSHLCGLRRRFK,inactive
12,LKKVLPYGVRWTDITGPWVS,inactive
13,NLNRSLVFFSCDYAGCDGCT,1.48 ± 0.077
14,LHCPISYLAMSKKS,inactive
15,WLIKYPGYW,inactive
16,WAIWAYRTLVESMWGTKIGK,inactive
17,RVRRGSHCNTFKKSLRLRCA,inactive
18,MLGLCPFKSDWLLIYRSMWC,1.32 ± 0.15
19,NYVVSFYISSNFWYDVVNCD,0.294 ± 0.22
20,QLSSYFRGLLFQCHSPQHGY,inactive
21,QDVAFAAEYELTKCSVLFSN,inactive
22,MSFWY,inactive
23,SVSLLLRFVILLCTFVQYGW,inactive

row,Substance,amyloid nucleation score
1,MFVGP,inactive
2,GFFTYTTRSGDSSYGVEASA,-0.289 ± 1.1
3,WYFPTQ,inactive
4,MNWFELFAHCLLKQFQRTLQ,inactive
5,HNSYRED,inactive
6,TFLYFNVLRIHFVASS,inactive
7,PVGVLYTSANGTDFVNIVRD,inactive
8,CSNKQSDTSFAYLTIMNMCP,inactive
9,CGVEHYWRGLVG,inactive
10,VVSVLLDTI,inactive
11,LSRGDLLEYR,inactive
12,NFKAT,inactive
13,FTMSYYKYLSHGRMRRGT,inactive
14,VDVSRTFALCHRDLPMMP,inactive
15,FCPPADGRVTGTCDLFLTNS,inactive
16,FMSRMRKWFGCSNTHSSGTR,1.77 ± 0.078
17,RMSLRAELVKVNLEAIPNWT,inactive
18,YVVREHYNGCATPN,inactive
19,MLWEVDLNVRTSMADT,inactive
20,SKFFLPQTEFPQKGLTPITA,inactive
21,VSSTVGMV,0.175 ± 0.29
22,HYWQYMFYSLHFVYRS,inactive
23,SVKVPWWDCINVRAHMWRMV,inactive

row,Substance,amyloid nucleation score
1,ELNTFKSTQIHWGIGDSSQE,0.34 ± 0.31
2,KRWTQINYFDWRLLRFATRS,inactive
3,LIYILWH,inactive
4,IFNRQFQKSIMRSWLNYESK,0.864 ± 0.13
5,SGSLGFYTP,inactive
6,THANEGRCYMVSSVMEVSPL,inactive
7,HFYYPLCWVCSVLLSHLVPD,inactive
8,VYLWKYRPQYPRVA,inactive
9,NRTCNDLMTFYSWGSSR,inactive
10,VFKWWM,1.2 ± 0.16
11,FLLKEWLK,-0.626 ± 0.9
12,QDIELMFSFFDGKAFSSYHL,-0.787 ± 0.98
13,RFVGSGCSGWCSRARDLWWL,inactive
14,NRAGGICDKIRAQGYSYHSM,0.475 ± 0.72
15,VVDIKNLYTCLTFCHKYGLN,0.988 ± 0.12
16,SDGVGQLDSDVHSGGGDNRQ,inactive
17,CFIKSMRVVMVILPFAPCLK,inactive
18,WRSASGVD,inactive
19,GFMHTVRCIRIEPPQCRAVV,inactive
20,LSRRNFIRNNVVQ,inactive
21,PYVECSWEAQG,inactive
22,RPRTRNRRSSISWAKAL,inactive
23,ESTYVDGRNTVNDYCPNSTI,inactive

row,Substance,amyloid nucleation score
1,VKFIYRLEQNEDSAQNSRMG,inactive
2,RSNMHC,inactive
3,SFWTMGNS,inactive
4,EIGYYFNFKRLGAS,inactive
5,GTGEGNDLCARQNPLHQRII,inactive
6,VRFKRVYCSG,inactive
7,RGTRTGPRDRTLFMSKAVRS,0.364 ± 0.39
8,DFIFIQILDVNCRWDRCMYC,0.444 ± 0.16
9,LYTAATLGSTRLAYCKKEWG,inactive
10,QEAGFMYGCYFVILQNHAGF,1.3 ± 0.092
11,SESSNTELLSVLYIYAVWYL,inactive
12,IPLLNVFSTRRSTCLEGSFT,inactive
13,QYRDSYANSSQNPFHCFFNL,inactive
14,YSDLKSFLLNVIGRNKSIGM,inactive
15,GCKEL,inactive
16,LYLGLFVSWCSLKSTAWFGK,inactive
17,SNCRNQFRERVLIAGVLWVV,inactive
18,DNQVICISCYGLIGLKGGRQ,1.5 ± 0.11
19,CFPTTSK,inactive
20,WYCVAEYGHFKCPSRKYVFG,inactive
21,SISSEALVFYFRIAGTVIKR,inactive
22,SSKFRRLLGVIMMADLMQVY,inactive
23,YCTRNTCEIVGCILCGGLLS,2.45 ± 0.086

row,Substance,amyloid nucleation score
1,TSTRHDGGFMVMWYLLGLTR,inactive
2,NHWGSNWWLVYKVYSGGLLM,inactive
3,SRRNTFAVGNFNSVLLN,inactive
4,PKLSRSYVLSMMVTWRNSKV,inactive
5,IALGRFTCNGIVVVSF,inactive
6,NVNEQSHPM,inactive
7,FDTFTMTEDSNPEKSECGLK,inactive
8,VGRAD,inactive
9,SSACISCYVSMLWYDVLFKV,0.345 ± 0.23
10,RYSESLMFRFKWDDYYRGRV,-0.307 ± 0.88
11,GKGFCLLVVSSVMRDVGLVQ,inactive
12,NTGLNFCRASLSWTLGLYSS,inactive
13,DDKRTENG,inactive
14,CYRLQAFNARGTERTDAVYL,inactive
15,TGVNFGRLLLISRSVLGVC,inactive
16,DARVFKAVFRVLCDLVPASC,inactive
17,DMISFKMLQYCWCSSCVFSH,2.18 ± 0.088
18,VYQSTSKF,inactive
19,LFFMIVFSLYEFVMCFSSTR,inactive
20,FFETRKYCGKEWFSGMLDMQ,inactive
21,TSPGFYGWMSNSTSSNDIVA,inactive
22,IQFPDQ,inactive
23,FGWVFLYDKLIPVKPFELYF,inactive

row,Substance,amyloid nucleation score
1,ISLGVMCYYVPIPGCECTNI,inactive
2,KDFIMHNILYMRRWAFTPLA,inactive
3,SVYPVFPTLFNSSYFSGTFG,inactive
4,WLWDVDDYGNPLWVRHASVA,inactive
5,TCAIPHLKCSFLLYFGQYGC,inactive
6,EWSLKIVTMNMASWM,inactive
7,PVISMHIVVLCGKQKKTMSP,0.594 ± 0.23
8,ATMKWFCIKHSFFPIGTCYA,inactive
9,ASAYSTYKVERLGFDGVQSS,inactive
10,KRLTMDLFDNCPMLYECEFT,inactive
11,RTLAVSIRNQWPYIGLARDT,inactive
12,KSESEGFNNSIRPWCMFCVS,inactive
13,REKDSAAHVVE,inactive
14,TRLTL,inactive
15,KSFSHGLFDLRGKRTVEICL,inactive
16,SWVRMYIGEFLVSRCQMWST,inactive
17,PFGGRR,0.013 ± 0.47
18,SLFSGVYSFYY,inactive
19,VNTEG,inactive
20,NCFVSICLFFASTFWLGLHN,inactive
21,FKSCLRTC,inactive
22,YSLNCYYFSLGLN,inactive
23,LDVVYRDIIDFRVLVESVYF,inactive
